B1: Axokine™: modified ciliary neurotrophic factor (CNTF) molecule, hCNTF C17A Q63R Δ15 (SEQ ID NO:3 or SEQ ID NO:4) (protein)
chain: MAFTEHSPLTPHRRDLASRSIWLARKIRSDLTALTESYVKHQGLNKNINLDSADGMPVASTDRWSELTEAERLQENLQAYRTFHVLLARLLEDQQVHFTPTEGDFHQAIHTLLLQVAAFAYQIEELMILLEYKIPRNEADGMPINVGDGGLFEKKLWGLKVLQELSQWTVRSIHDLRFISSHQTG

Experiments:
[1] = test system: DIO (Diet-Induced Obesity; AKR/J mice fed a high fat diet) mice; assay: Effect on body weight in a mouse model of obesity (DIO mice), daily treatment Day 0 to Day 21; format: in vivo; settings: Axokine 0.03 mg/kg SC, phentermine 10.0 mg/kg IP; for loss of starting body weight: after 21 days of daily treatment, control lost 2%; for body weight change in words (FIG. 1): daily administration
Experimental: FIG. 1 is a graph of the change in body weight as a percentage of weight at Day 0 from Day 0 to Day 21 food intake (24 hours) over time (Days —1 to 21) for diet-induced obese (DIO) mice treated with 0.9% NaCl (4 μl/g, intraperitoneal (IP) injection) and placebo (4 μl/g subcutaneous (SC) injection; Group A: Control ═X); Axokine™ (0.03 mg/kg, SC; Group B=⋄); phentermine (10.0 mg/kg, IP; Group C=□); Axokine™ (0.03 mg/kg, SC) and phentermine (10.0 mg/kg, IP; Group D=□); and pair fed to group B=⋄).
(§1) A study was conducted to determine the effect of the combination of phentermine and Axokine™ on body weight and food intake in a mouse model of obesity. 30 DIO (Diet-Induced Obesity; AKR/J mice fed a high fat diet) mice were divided into 5 equal groups (n=6 per group). Four groups were treated daily in the afternoon starting on Day 0 as follows: Group A (control): 0.9% NaCl (4 μl/g, intraperitoneal (IP) injection) and placebo (4 μl/g subcutaneous (SC) injection); Group B: Axokine™ (0.03 mg/kg, SC); Group C: phentermine (10.0 mg/kg, IP); Group D: Axokine™ (0.03 mg/kg, SC)+phentermine (10.0 mg/kg, IP). The […] group, Group E was pair fed to Group B; each animal in this group received the average amount of food the Axokine™ treated animals consumed the previous day. This treatment paradigm continued until Day 21 (last injection on Day 20). […] Animals who were pair-fed to the Axokine™ group, lost weight at a rate similar to that of the Axokine™ group up to Day 11 of the study. After this time, their weight loss reached a plateau.

[2] = test system: DIO (Diet-Induced Obesity; AKR/J mice fed a high fat diet) mice; assay: 24 h food intake in DIO mice over the 21 day study; format: in vivo, mouse
Experimental: FIG. 2 is a graph of 24 h food intake monitored for the duration of the study for the DIO mice treated as described in the legend of FIG. 1.
as §1
After the second day of the study, control animals resumed their typical eating pattern, consuming approximately 4 g of food a day. Animals who received Axokine™ or were pair-fed, maintained this decreased food intake of about 2.75 g per day until Day 12 when they began to consume more food (3.5 g at the end of the study).

Molecule | loss of starting body weight [1] | body weight change in words (FIG. 1) [1] | food intake in words (FIG. 2) ([2]; daily treatment, Axokine 0.03 mg/kg SC, phentermine 10.0 mg/kg IP) | 24 h food intake at the end of the study ([2]; Axokine 0.03 mg/kg SC daily, end of the study (Day 21)) | 24 h food intake ([2]; Axokine 0.03 mg/kg SC daily, from Day 2 until Day 12, control approximately 4 g a day)
CC(C)(N)Cc1ccccc1 [phentermine, reference compound] | about 15% | significant decrease in body weight relative to control animals | decreased food intake relative to control |  | 
B1 | approximately 19% | significant decrease in body weight relative to control animals |  | 3.5 g | about 2.75 g per day

From patent publication US20060058224A1, “Methods of treating obesity with combination therapeutics” (priority 2004, published 2006)
